Biological target: His-mATGL288-Str (expression product of pST44-HIS-SMT3-TEV-mATGL288-STR) (mouse) (UniProt Q8BJ56)
Sequence (Q8BJ56 1-288): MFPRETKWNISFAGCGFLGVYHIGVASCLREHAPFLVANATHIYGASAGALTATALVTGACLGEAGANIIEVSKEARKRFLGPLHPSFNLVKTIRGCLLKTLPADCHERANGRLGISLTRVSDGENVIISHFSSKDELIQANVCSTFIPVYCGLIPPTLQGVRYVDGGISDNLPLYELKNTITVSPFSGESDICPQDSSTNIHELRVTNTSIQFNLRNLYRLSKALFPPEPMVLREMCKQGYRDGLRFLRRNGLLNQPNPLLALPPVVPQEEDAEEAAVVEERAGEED

Chain of CGI-58 (expression product of pST44-SMT3-TEV-mCGI58-HIS) (Q9DBL9 whole entry): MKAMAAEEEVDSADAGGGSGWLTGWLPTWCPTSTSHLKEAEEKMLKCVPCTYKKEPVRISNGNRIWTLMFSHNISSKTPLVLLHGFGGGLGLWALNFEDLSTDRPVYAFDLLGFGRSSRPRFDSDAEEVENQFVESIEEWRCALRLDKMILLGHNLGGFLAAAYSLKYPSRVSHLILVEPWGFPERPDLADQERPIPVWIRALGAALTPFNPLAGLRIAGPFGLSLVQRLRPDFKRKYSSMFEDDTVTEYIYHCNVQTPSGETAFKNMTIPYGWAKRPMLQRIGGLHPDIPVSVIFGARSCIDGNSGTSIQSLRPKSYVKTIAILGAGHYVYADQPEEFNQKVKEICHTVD

- TAG hydrolase activity of His-mATGL288-Str coactivated by CGI-58 after storage at 4 °C, against fresh protein: 50 % loss
- TAG hydrolase activity of His-mATGL288-Str coactivated by CGI-58 within 10 days of storage at -80 °C (snap frozen, 10% glycerol), against fresh protein: 50 % loss
- TAG hydrolase activity of freshly purified His-mATGL288-Str, CGI-58-stimulated against basal (equimolar mCGI-58): 10 fold
- TAG hydrolase activity upon CGI-58 coactivation of His-mATGL288-Str frozen in sucrose buffer at -80 °C, alone or as complex with CGI-58, against fresh protein: 40 % loss
Substance: CGI-58 (expression product of pST44-SMT3-TEV-mCGI58-HIS) (from UniProt Q9DBL9 1-351) (natural protein)
